In the supplement of paper PMC10567573:
± gives the standard deviation.

Test: protein stability index of a GFP-peptide fusion (GPS, HEK-293T) (PSI 1-6); higher = more stable
Details: c terminus: a fixed tail appended
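Note: 24-mer peptide tiles fused after GFP, lentivirally expressed, FACS-sorted into six equal bins by GFP/DsRed ratio, decoded by Illumina sequencing, PSI is the read-weighted mean bin number.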

Sequence | protein stability index (treatment: DMSO) | protein stability index (treatment: MLN4924 1 uM, 8 h)
MAATCEISNIFSNYFSAMYSSEDS [ELF3] | 2.29 ± 0.22 | 2.3 ± 0.21
ALIDRPAPYFERSSSKRYTMSRSL [EPB41L3] | 2.8 ± 0.31 | 3.12 ± 0.58
DIDVQLSSELTDSLRTLKPEGNIL [NOP53] | 4.1 ± 0.29 | 4.06 ± 0.36
PLQNQKILKRTGQRYEHGRTLKSY [ZNF649] | 2.89 ± 0.45 | 3.53 ± 0.41
GMSYLYASWMYQLQHGDQLSICFT [TEX19] | 3 ± 0.39 | 2.92 ± 0.42
APRLLKREPDWGDGDAPGSLLPAQ [CEBPD] | 4.87 ± 0.43 | 5.03 ± 0.37
RSTCVYVCALSALPAGPLPAPLLV [PLEKHN1] | 3.18 ± 1.1 | 2.88 ± 0.71
SNFNYFYHRETEGEEQSQYMHVGS [KCNA3] | 3.89 ± 0.08 | 3.88 ± 0.48
LDPSSGAIHVLGPIDFEESRFYEI [PCDHGC5] | 2.27 ± 0.2 | 2.25 ± 0.26
EEVDEDGSGTIDFEEFLVMMVRQM [TNNC2] | 3.52 ± 0.15 | 3.79 ± 0.44
LPSPVQACSEDSLFLRCSLRHKDE [DRICH1] | 4.31 ± 0.15 | 4.48 ± 0.2
EAGFHTVEAVAYAPKKELINIKGI [RAD51] | 3.01 ± 0.054 | 3.19 ± 0.29
LEVDHIRTIYHMFIALLILFILST [SOAT1] | 2.58 ± 0.39 | 2.43 ± 0.41
PCKTRDDEPVCGRPLGIRAGPNGT [APMAP] | 3.9 ± 0.36 | 4.14 ± 0.093
GPTGVTMTSNPITWGQIKKTTQEA [CDK11A] | 4.55 ± 0.21 | 4.51 ± 0.4
LCGQAAGAASLPSELIVHIFSFLP [FBXO33] | 2.54 ± 0.72 | 2.29 ± 0.18
TLSRPPPAQVPREVLKVQTHLENP [TFE3] | 4.3 ± 0.11 | 4.41 ± 0.19
GFFDFETFDVDEYEHYERVENGDF [CDC14A] | 4.14 ± 0.51 | 4.49 ± 0.52
RGTYEQDGRFEKRQGNPSWKKQQK [ZNF396] | 4.63 ± 0.34 | 4.72 ± 0.41
EEEDEILPRKDYESLDYDRCINDP [CLCN6] | 5.52 ± 0.17 | 5.48 ± 0.29
VRHEGTRTLWSGLPATLVMTVPAT [SLC25A39] | 2.33 ± 0.18 | 2.27 ± 0.13
RIQTQKEQAKENENGELQKIILPR [ZC2HC1C] | 4.77 ± 0.21 | 4.51 ± 0.41
GLSQVLLRGGGQVLLGWTLHYFPF [POMT2] | 2.95 ± 0.26 | 2.97 ± 0.64
GGGNARATGMFLQYTVPGTEGVTQ [ZFYVE21] | 3.51 ± 0.35 | 3.57 ± 0.18

Sequence | protein stability index (treatment: DMSO) | protein stability index (treatment: MLN4924 1 uM, 8 h)
VERALQLPREPGDSAQFTKALAII [FEM1A] | 3.1 ± 0.051 | 2.8 ± 0.31
EIRDWRGPQLEGEKDWGLEGYVWR [ZSWIM9] | 3 ± 0.56 | 3.29 ± 0.57
RLIRELAEFEKLSDQVKISEEALR [SAT2] | 3.16 ± 0.35 | 3.43 ± 0.3
PQYEFKEAAGSFTSSLAQPGAYYP [IRX6] | 3.37 ± 0.19 | 3.36 ± 0.24
MDADMDYERPNVETIKCVVVGDNA [RHOBTB1] | 4.8 ± 0.1 | 4.83 ± 0.14
RFCSEIKSSKYGEGHQAWIVGIVE [SEPHS2] | 2.23 ± 0.21 | 2.12 ± 0.37
KQTGIVFGSFLLLLFSLTQFSVVS [RTN1] | 3.08 ± 0.46 | 3.48 ± 0.38
TIGNLVPQKTYSVKVLAFTSIGDG [PTPRD] | 2.39 ± 0.16 | 2 ± 0.33
RGNLSILAAVLVEPKLHTPMYFFL [OR3A1] | 2.86 ± 0.46 | 3.06 ± 0.57
EGYWLPGDEISIKKKNTNKQEMGT [ZMYND11] | 4.7 ± 0.17 | 4.58 ± 0.084
NGKEFNNWFNVTGSDKCVFLKNTE [CD69] | 3.2 ± 0.31 | 3.08 ± 0.42
KSRLSSVSVTYCSVSQDFPGSNLN [ETS2] | 2.62 ± 0.26 | 2.64 ± 0.18
NKTDVVLILELVSGGELFDFLAEK [DAPK3] | 2.55 ± 0.58 | 2.68 ± 0.96
YYTMDPTQHVNNWMKHNVADSQIT [PTPRD] | 2.95 ± 0.31 | 2.93 ± 0.5
ASSPYISSVQSYPGSASLAQSRLE [DLX1] | 3.92 ± 0.18 | 4.13 ± 0.14
GTSDYDDVLSCEYYSPILDQWTPI [KLHL13] | 2.41 ± 0.33 | 2.34 ± 0.19
RPALAQQAQGARAGGSARRPDTGD [GMCL1] | 5.28 ± 0.19 | 5.33 ± 0.13
RIFDIKDGKLLWEQELYNNFVYNS [WASL] | 2.15 ± 0.67 | 2.13 ± 0.62
SYKYTSRYVLKAGQTVTIWAANAG [LMNB1] | 2.24 ± 0.25 | 1.87 ± 0.25
RDDLDRLGVFLDYEAGVLAFYDVT [TRIM14] | 2.55 ± 0.31 | 2.06 ± 0.53
LEAIRKQDLVELYLTNCEKLSAKS [ZER1] | 3.06 ± 0.21 | 3.11 ± 0.36
HVAVEHQLPPASRCVLVFEQVRFL [SOAT2] | 2.66 ± 0.86 | 2.36 ± 0.61
TSCLKKREEMKLKECVSILPRKES [TNFSF13B] | 4.42 ± 0.15 | 4.5 ± 0.15
LVLAAVVAWCYYSVSLRKAERLRA [MYORG] | 3.27 ± 0.64 | 3.31 ± 0.33

Sequence | protein stability index (treatment: DMSO) | protein stability index (treatment: MLN4924 1 uM, 8 h)
SALQSLLQHLIGLSNLTHVLYPVP [PRAME] | 3.36 ± 0.28 | 3.2 ± 0.16
LCPSRAELDRWLYHLEKQTALLGG [PLEKHN1] | 2.53 ± 0.21 | 2.62 ± 0.22
RVYLATDDPSLLKEAKTKYPNYEF [FUT8] | 2.95 ± 0.36 | 2.9 ± 0.28
NHSLARHADILAAVETRLSLLNMT [FBXO28] | 2.53 ± 0.13 | 2.71 ± 0.19
RINLVAAIFSAPAFPAAVSSMKKF [PSD2] | 2.37 ± 0.46 | 2.27 ± 0.59
REAEKQNYLAEHCPPLHIPGSMSE [TNNI2] | 4.67 ± 0.25 | 4.72 ± 0.31
ESKGCFANTTPSGKSVSSSSSVET [SPATS1] | 5.18 ± 0.14 | 5.19 ± 0.12
IPPMAQPGLPPVPGAPGMPPGIPP [ZNF207] | 4.29 ± 0.24 | 4.4 ± 0.35
LDSSHSPSSLSSSEGSSSSSSSSS [NFE2L1] | 5.51 ± 0.17 | 5.46 ± 0.15
QHGQLGTNTRRGSRAPCKVQGLEG [NEK8] | 4.18 ± 0.15 | 4.19 ± 0.19
LGSAGAQYEKYSFRGFPPEDLMPL [P3H4] | 2.87 ± 0.52 | 2.86 ± 0.17
RPAQAIGTQPRATKHKCRQLTKAS [SPACA9] | 4.47 ± 0.16 | 4.44 ± 0.34
SCRRKQEDDRDGLLAEREQEEAIA [TMEM106C] | 5.45 ± 0.33 | 5.42 ± 0.091
ACLLQLAEIQEACCEFLKRQLDPS [KLHL20] | 2.32 ± 0.58 | 2.16 ± 0.053
SALAPSVFKQAKDKVSDGVTKSPE [MAP2] | 5.44 ± 0.22 | 5.44 ± 0.18
FIGLEVVAQLFNCMVGLLLIALLT [ATL3] | 3.08 ± 0.3 | 3.39 ± 0.28
DFNLCLFYLPSSPNLSLASEDEEE [SMG5] | 2.85 ± 0.21 | 3.14 ± 0.24
IANPNSLHHVKTMWYPEIKHFCPR [RHOBTB2] | 2.36 ± 0.25 | 2.64 ± 0.2
GFTTATEFHQRRSEIIQITTGSKE [RAD51] | 4.22 ± 0.44 | 4.35 ± 0.47
PELSYRVCVGSDVTSIHKYMVRRY [MYORG] | 2.31 ± 0.14 | 2.27 ± 0.24
PKKDLEDGEVPQHAGKKGKLSEHL [BRD3] | 5.18 ± 0.26 | 5.3 ± 0.26
TAVGAILAGGLCVGIYATNSAEAC [ACSBG2] | 2.35 ± 0.12 | 2.84 ± 0.75
YEMTDLTNNKVYAAKIIPHSRVAK [PLK2] | 3.78 ± 0.092 | 4.05 ± 0.28
METQAEQQELETLPTTKMAQTNPT [CRYBA1] | 5.24 ± 0.3 | 5.3 ± 0.29
